T1: FcγRIIb extracellular domain with C-terminal His tag (human, UniProt P31994 43-217)
T1 construct: extracellular domain; soluble receptor expressed in FreeStyle293 cells, used as analyte in Biacore; also called FcgRIIb; 2b; not shown: His tag attached to the C terminus
T1 sequence (looked up): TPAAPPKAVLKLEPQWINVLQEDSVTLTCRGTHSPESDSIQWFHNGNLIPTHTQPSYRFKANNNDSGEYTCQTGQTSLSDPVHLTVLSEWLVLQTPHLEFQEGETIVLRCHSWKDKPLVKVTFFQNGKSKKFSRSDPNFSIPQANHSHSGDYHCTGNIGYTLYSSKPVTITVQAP

T2: FcγRIIa H (human, UniProt P12318 34-217)
T2 construct: extracellular domain; also called FcγRIIa type H; 2aH
T2 sequence (looked up): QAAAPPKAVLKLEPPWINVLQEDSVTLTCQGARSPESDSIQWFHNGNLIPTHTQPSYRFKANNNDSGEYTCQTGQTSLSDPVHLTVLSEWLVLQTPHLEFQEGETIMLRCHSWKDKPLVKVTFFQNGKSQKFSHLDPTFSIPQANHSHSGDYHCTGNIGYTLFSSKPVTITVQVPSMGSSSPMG

T3: FcγRIIb (human, UniProt P31994 43-217)
T3 construct: extracellular domain; also called 2b
T3 sequence (looked up): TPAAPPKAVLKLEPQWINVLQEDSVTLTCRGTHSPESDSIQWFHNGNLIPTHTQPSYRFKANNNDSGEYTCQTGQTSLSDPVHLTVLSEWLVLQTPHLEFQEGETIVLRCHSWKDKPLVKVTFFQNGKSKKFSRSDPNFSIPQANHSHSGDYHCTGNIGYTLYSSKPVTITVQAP


Tests used:
[1] = molecular target: T4, FcγRIa extracellular domain with C-terminal His tag (human, UniProt P12314 16-292); assay: SPR (Biacore), antibody captured on antigen peptide chip, FcγR as analyte; relative binding
T4 construct: extracellular domain; soluble receptor expressed in FreeStyle293 cells, used as analyte in Biacore; also called FcgRI; 1a; not shown: His tag attached to the C terminus

[2] = molecular target: T1, FcγRIIb extracellular domain with …; assay: as above
FcγRIIa H = molecular target: T2, FcγRIIa H; assay: SPR (Biacore), relative binding vs GpH7-A5/GpH7-B3/GpL16-k0
Experimental: (§1) The heterodimerized antibodies He Abs in which one of the H chains was introduced with an alteration were assayed for their binding activities to each activating FcγR and inhibitory FcγR according to the method described in Example 4. […] The activating FcγRs in FIGS. 26, 27, 28, and 29 are FcγRIa, FcγRIIa (R), FcγRIIa (H), and FcγRIIIa, respectively.
(§2) Analysis of interaction between objective antibody and the FcγR was carried out using Biacore T100 (GE Healthcare). HBS-EP+ (GE Healthcare) was used as the running buffer, and the measurement temperature was set to 25° C. Chips produced by immobilizing the antigen peptide by the amine coupling method to a Series S Sencor Chip CM5 (GE Healthcare), or alternatively, chips produced by allowing preliminarily biotinylated antigen peptides to interact with and immobilize onto a Series S Sensor Chip SA (certified) (GE Healthcare) were used. Antibodies of interest were captured onto an antigen peptide-immobilized chip, and allowed to interact to each FcγR diluted with running buffer. To regenerate and repeatedly use the chip, the antibodies captured on the chip were washed off by reacting 10 mM glycine-HCl, pH 1.5.

FcγRIIb = molecular target: T3, FcγRIIb; assay: as above
Experimental: as §1, §2

T4 sequence (P12314 16-292): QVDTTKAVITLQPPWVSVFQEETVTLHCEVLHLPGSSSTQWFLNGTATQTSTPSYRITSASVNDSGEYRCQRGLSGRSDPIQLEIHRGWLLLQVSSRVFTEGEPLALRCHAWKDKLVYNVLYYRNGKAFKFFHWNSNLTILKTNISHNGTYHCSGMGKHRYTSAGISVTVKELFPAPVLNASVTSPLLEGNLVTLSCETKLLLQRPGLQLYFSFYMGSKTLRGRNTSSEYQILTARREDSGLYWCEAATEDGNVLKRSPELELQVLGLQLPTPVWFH

| He/Con_1a [1] | He/Con_2b [2] | He/Con_2aH (FcγRIIa H) | He/Con_2b (FcγRIIb) | Binder |
| --- | --- | --- | --- | --- |
| 114 % of control GpH7-A5/GpH7-B3/GpL16-k0 (=100) | 87.5 % of control GpH7-A5/GpH7-B3/GpL16-k0 (=100) | – | – | GpH7-A5/GpH7-B3 variant S324_20W/GpL16-k0 (antibody, human IgG1, kappa, heterodimerized anti-glypican-3 IgG1; alteration in the GpH7-B3 chain only; also called He Ab) heavy 1: not shown heavy 2: not shown light: DIVMTQSPLSLPVTPGEPASISCQASESLVHSNRNTYLHWYLQKPGQSPQLLIYKVSNRFSGVPDRFSGSGSGTDFTLKISRVEAEDVGVYYCSQNTHVPPTFGQGTKVEIERTVAAPSVFIFPPSDEQLKSGTASVVCLLNNFYPREAKVQWKVDNALQSGNSQESVTEQDSKDSTYSLSSTLTLSKADYEKHKVYACEVTHQGLSSPVTKSFNRGEC |
| – | – | 97 % of control He Ab (=100) | 108 % of control He Ab (=100) | GpH7-A5/GpH7-B3 variant K334_02A/GpL16-k0 (antibody, human IgG1, kappa, heterodimerized IgG1, mutation in one H chain only; also called He Ab) heavy 1: not shown heavy 2: not shown light: DIVMTQSPLSLPVTPGEPASISCQASESLVHSNRNTYLHWYLQKPGQSPQLLIYKVSNRFSGVPDRFSGSGSGTDFTLKISRVEAEDVGVYYCSQNTHVPPTFGQGTKVEIERTVAAPSVFIFPPSDEQLKSGTASVVCLLNNFYPREAKVQWKVDNALQSGNSQESVTEQDSKDSTYSLSSTLTLSKADYEKHKVYACEVTHQGLSSPVTKSFNRGEC |
| – | – | 99 % of control He Ab (=100) | 104 % of control He Ab (=100) | GpH7-A5/GpH7-B3 variant A330_01G/GpL16-k0 (antibody, human IgG1, kappa, heterodimerized IgG1, mutation in one H chain only; also called He Ab) heavy 1: not shown heavy 2: not shown light: DIVMTQSPLSLPVTPGEPASISCQASESLVHSNRNTYLHWYLQKPGQSPQLLIYKVSNRFSGVPDRFSGSGSGTDFTLKISRVEAEDVGVYYCSQNTHVPPTFGQGTKVEIERTVAAPSVFIFPPSDEQLKSGTASVVCLLNNFYPREAKVQWKVDNALQSGNSQESVTEQDSKDSTYSLSSTLTLSKADYEKHKVYACEVTHQGLSSPVTKSFNRGEC |
| – | – | 97.2 % of control He Ab (=100) | 116 % of control He Ab (=100) | GpH7-A5/GpH7-B3 variant A327_01G/GpL16-k0 (antibody, human IgG1, kappa, heterodimerized IgG1, mutation in one H chain only; also called He Ab) heavy 1: not shown heavy 2: not shown light: DIVMTQSPLSLPVTPGEPASISCQASESLVHSNRNTYLHWYLQKPGQSPQLLIYKVSNRFSGVPDRFSGSGSGTDFTLKISRVEAEDVGVYYCSQNTHVPPTFGQGTKVEIERTVAAPSVFIFPPSDEQLKSGTASVVCLLNNFYPREAKVQWKVDNALQSGNSQESVTEQDSKDSTYSLSSTLTLSKADYEKHKVYACEVTHQGLSSPVTKSFNRGEC |
| – | – | 97.6 % of control He Ab (=100) | 105 % of control He Ab (=100) | GpH7-A5/GpH7-B3 variant K334_05P/GpL16-k0 (antibody, human IgG1, kappa, heterodimerized IgG1, mutation in one H chain only; also called He Ab) heavy 1: not shown heavy 2: not shown light: DIVMTQSPLSLPVTPGEPASISCQASESLVHSNRNTYLHWYLQKPGQSPQLLIYKVSNRFSGVPDRFSGSGSGTDFTLKISRVEAEDVGVYYCSQNTHVPPTFGQGTKVEIERTVAAPSVFIFPPSDEQLKSGTASVVCLLNNFYPREAKVQWKVDNALQSGNSQESVTEQDSKDSTYSLSSTLTLSKADYEKHKVYACEVTHQGLSSPVTKSFNRGEC |
| – | – | 91.3 % of control He Ab (=100) | 140 % of control He Ab (=100) | GpH7-A5/GpH7-B3 variant A327_10E/GpL16-k0 (antibody, human IgG1, kappa, heterodimerized IgG1, mutation in one H chain only; also called He Ab) heavy 1: not shown heavy 2: not shown light: DIVMTQSPLSLPVTPGEPASISCQASESLVHSNRNTYLHWYLQKPGQSPQLLIYKVSNRFSGVPDRFSGSGSGTDFTLKISRVEAEDVGVYYCSQNTHVPPTFGQGTKVEIERTVAAPSVFIFPPSDEQLKSGTASVVCLLNNFYPREAKVQWKVDNALQSGNSQESVTEQDSKDSTYSLSSTLTLSKADYEKHKVYACEVTHQGLSSPVTKSFNRGEC |
| 112 % of control GpH7-A5/GpH7-B3/GpL16-k0 (=100) | 66.8 % of control GpH7-A5/GpH7-B3/GpL16-k0 (=100) | – | – | GpH7-A5/GpH7-B3 variant S324_19Q/GpL16-k0 (antibody, human IgG1, kappa, heterodimerized anti-glypican-3 IgG1; alteration in the GpH7-B3 chain only; also called He Ab) heavy 1: not shown heavy 2: not shown light: DIVMTQSPLSLPVTPGEPASISCQASESLVHSNRNTYLHWYLQKPGQSPQLLIYKVSNRFSGVPDRFSGSGSGTDFTLKISRVEAEDVGVYYCSQNTHVPPTFGQGTKVEIERTVAAPSVFIFPPSDEQLKSGTASVVCLLNNFYPREAKVQWKVDNALQSGNSQESVTEQDSKDSTYSLSSTLTLSKADYEKHKVYACEVTHQGLSSPVTKSFNRGEC |
| – | – | 85.7 % of control He Ab (=100) | 137 % of control He Ab (=100) | GpH7-A5/GpH7-B3 variant A330_05P/GpL16-k0 (antibody, human IgG1, kappa, heterodimerized IgG1, mutation in one H chain only; also called He Ab) heavy 1: not shown heavy 2: not shown light: DIVMTQSPLSLPVTPGEPASISCQASESLVHSNRNTYLHWYLQKPGQSPQLLIYKVSNRFSGVPDRFSGSGSGTDFTLKISRVEAEDVGVYYCSQNTHVPPTFGQGTKVEIERTVAAPSVFIFPPSDEQLKSGTASVVCLLNNFYPREAKVQWKVDNALQSGNSQESVTEQDSKDSTYSLSSTLTLSKADYEKHKVYACEVTHQGLSSPVTKSFNRGEC |
| – | – | 97.9 % of control He Ab (=100) | 119 % of control He Ab (=100) | GpH7-A5/GpH7-B3 variant K326_16H/GpL16-k0 (antibody, human IgG1, kappa, heterodimerized IgG1, mutation in one H chain only; also called He Ab) heavy 1: not shown heavy 2: not shown light: DIVMTQSPLSLPVTPGEPASISCQASESLVHSNRNTYLHWYLQKPGQSPQLLIYKVSNRFSGVPDRFSGSGSGTDFTLKISRVEAEDVGVYYCSQNTHVPPTFGQGTKVEIERTVAAPSVFIFPPSDEQLKSGTASVVCLLNNFYPREAKVQWKVDNALQSGNSQESVTEQDSKDSTYSLSSTLTLSKADYEKHKVYACEVTHQGLSSPVTKSFNRGEC |

— patent US20180155451A1 (published 2018)
